Data on four sequences can be found in US10500249B2, “Compositions and methods for preventing or treating diseases, conditions, or processes characterized by aberrant fibroblast proliferation and extracellular matrix deposition” (MOERAE MATRIX, INC., priority 2014, dated 2019).

In one experiment the target is T1, JAK3 (h) (Homo sapiens, UniProt P52333).
T1 construct: purchased Millipore
T1 sequence (P52333 1-1124): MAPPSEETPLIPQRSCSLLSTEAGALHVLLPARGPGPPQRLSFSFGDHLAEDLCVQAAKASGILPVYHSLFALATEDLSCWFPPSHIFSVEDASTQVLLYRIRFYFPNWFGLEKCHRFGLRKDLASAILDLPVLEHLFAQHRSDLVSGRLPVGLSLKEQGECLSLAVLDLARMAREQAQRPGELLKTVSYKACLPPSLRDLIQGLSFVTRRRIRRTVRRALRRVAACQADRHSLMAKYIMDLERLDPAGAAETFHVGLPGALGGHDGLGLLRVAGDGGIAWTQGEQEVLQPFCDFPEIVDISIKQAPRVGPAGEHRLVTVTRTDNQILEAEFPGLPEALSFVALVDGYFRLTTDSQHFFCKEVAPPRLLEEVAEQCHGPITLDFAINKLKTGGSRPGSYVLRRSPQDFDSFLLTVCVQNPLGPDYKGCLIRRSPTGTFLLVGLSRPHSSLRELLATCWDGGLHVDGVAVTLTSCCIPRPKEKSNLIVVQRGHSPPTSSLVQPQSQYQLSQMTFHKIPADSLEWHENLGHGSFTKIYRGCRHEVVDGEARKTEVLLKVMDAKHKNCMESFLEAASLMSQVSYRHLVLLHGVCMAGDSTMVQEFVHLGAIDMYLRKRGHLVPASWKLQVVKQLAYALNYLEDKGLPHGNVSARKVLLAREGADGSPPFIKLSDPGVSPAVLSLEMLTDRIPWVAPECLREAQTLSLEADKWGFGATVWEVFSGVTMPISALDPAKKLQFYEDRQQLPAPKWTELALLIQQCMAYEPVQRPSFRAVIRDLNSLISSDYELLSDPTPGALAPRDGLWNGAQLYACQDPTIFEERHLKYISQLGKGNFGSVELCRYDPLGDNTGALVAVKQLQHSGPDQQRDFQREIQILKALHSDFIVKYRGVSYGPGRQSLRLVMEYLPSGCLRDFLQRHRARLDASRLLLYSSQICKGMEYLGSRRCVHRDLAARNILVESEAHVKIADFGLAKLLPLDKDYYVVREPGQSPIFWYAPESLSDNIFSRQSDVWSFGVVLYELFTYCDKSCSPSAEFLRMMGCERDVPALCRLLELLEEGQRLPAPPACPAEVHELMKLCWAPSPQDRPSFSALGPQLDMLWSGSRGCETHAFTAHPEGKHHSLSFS
As to the kind of experiment: Kinase Profiling Assay. Format: biochemical. Particulars: 100 μM. In short, it runs like this:
(§1)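 Duplicate wells; [radiolabeled] ATP phosphate onto cationic substrate; filter capture (negatively charged membrane); scintillation count; % of 100% activity control. Selectivity screen of MK2 peptide inhibitors, 266 human kinases.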

A further experiment concerns the target T2, PDGFRα (D842V) (h) (Homo sapiens, UniProt P16234, D842V).
T2 construct: purchased Millipore
The experiment in a line: Kinase Profiling Assay. Format: biochemical. Conditions: 100 μM. The essentials: as §1

In another experiment the target is Snk (h) (Homo sapiens, UniProt Q9NYY3). As to the kind of experiment: Kinase Profiling Assay. Format: biochemical. Conditions: 100 μM. In short, it runs like this: as §1
Chain of Snk (h) (Q9NYY3 whole entry): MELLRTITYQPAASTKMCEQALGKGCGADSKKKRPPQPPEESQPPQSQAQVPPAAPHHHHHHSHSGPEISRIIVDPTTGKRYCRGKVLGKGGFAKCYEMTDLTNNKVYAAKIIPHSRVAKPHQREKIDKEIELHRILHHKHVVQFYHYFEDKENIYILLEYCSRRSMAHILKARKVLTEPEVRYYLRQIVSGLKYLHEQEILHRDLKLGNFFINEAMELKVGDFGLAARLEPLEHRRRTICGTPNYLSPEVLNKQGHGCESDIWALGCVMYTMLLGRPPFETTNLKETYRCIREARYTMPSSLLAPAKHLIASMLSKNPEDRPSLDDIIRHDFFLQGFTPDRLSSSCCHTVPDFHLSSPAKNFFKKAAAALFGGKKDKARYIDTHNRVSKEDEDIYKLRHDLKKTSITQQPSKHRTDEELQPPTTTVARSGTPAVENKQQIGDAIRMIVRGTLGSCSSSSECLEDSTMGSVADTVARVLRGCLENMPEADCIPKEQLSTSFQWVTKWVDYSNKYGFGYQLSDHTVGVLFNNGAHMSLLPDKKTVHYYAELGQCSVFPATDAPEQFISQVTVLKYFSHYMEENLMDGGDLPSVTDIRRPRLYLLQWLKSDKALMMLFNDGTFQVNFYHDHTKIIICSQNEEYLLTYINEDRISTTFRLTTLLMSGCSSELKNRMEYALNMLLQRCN
In the next experiment the target is MAPK1 (h) (Homo sapiens, UniProt P27361). The experiment in a line: Kinase Profiling Assay. The class given is biochemical. Conditions: 100 μM. The essentials:
as §1

A further experiment has as its target T3, MRCKα (h) (Homo sapiens, UniProt Q5VT25).
T3 construct: purchased Millipore
The experiment in a line: Kinase Profiling Assay. Format: biochemical. Particulars: 100 μM. The essentials:
as §1

The target in a further experiment is T4, PAK3 (h) (Homo sapiens, UniProt O75914).
T4 construct: purchased Millipore
T4 sequence (O75914 whole entry): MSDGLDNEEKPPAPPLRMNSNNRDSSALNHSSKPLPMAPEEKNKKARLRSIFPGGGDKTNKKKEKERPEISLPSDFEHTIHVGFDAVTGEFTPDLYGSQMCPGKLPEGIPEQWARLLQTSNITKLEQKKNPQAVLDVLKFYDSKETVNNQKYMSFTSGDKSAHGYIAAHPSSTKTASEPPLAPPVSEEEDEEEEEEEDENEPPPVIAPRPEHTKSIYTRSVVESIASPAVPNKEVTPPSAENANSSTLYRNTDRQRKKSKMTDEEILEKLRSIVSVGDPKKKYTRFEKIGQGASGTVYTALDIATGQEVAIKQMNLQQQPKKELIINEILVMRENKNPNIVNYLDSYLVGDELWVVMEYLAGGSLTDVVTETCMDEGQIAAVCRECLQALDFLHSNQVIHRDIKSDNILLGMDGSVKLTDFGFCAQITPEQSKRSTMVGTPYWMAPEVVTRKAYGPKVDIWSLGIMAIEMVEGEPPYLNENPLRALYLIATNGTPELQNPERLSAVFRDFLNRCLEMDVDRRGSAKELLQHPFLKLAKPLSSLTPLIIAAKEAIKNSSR
The experiment in a line: Kinase Profiling Assay. Format: biochemical. Particulars: 100 μM. The essentials:
as §1

For another experiment, the target named is Plk1 (h) (Homo sapiens, UniProt P53350). As to the kind of experiment: Kinase Profiling Assay. The class given is biochemical. Conditions: 100 μM. The essentials: as §1
Chain of Plk1 (h) (P53350 whole entry): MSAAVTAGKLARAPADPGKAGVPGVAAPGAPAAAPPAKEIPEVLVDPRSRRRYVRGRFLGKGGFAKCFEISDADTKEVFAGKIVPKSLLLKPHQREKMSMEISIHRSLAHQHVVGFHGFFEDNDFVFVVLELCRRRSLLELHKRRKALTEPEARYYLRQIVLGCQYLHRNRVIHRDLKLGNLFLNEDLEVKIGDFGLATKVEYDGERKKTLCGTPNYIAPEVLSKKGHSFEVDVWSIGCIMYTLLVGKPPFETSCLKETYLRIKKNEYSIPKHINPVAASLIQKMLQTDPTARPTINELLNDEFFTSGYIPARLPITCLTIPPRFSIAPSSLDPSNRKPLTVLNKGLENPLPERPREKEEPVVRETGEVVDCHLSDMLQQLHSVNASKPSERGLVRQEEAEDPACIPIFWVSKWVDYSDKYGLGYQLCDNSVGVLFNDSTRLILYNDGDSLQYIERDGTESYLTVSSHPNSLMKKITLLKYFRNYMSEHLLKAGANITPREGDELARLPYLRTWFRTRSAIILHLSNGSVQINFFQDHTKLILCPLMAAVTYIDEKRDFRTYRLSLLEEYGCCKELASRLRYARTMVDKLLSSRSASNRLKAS
The subject of experiment [1] is bleomycin-induced lung fibrosis. As to the kind of experiment: Bleomycin mouse model of pulmonary fibrosis (prevention model). The class given is in vivo, C57BL/6 mice. Conditions: 25, 50 or 75 μg/kg daily IP, day 7 through day 21. As to the method: A mouse model of pulmonary fibrosis was generated by administering 0.025 U of bleomycin/PBS intratracheally to C57BL/6 mice. […] At 21 day post bleomycin delivery (for prevention model) or 28 post bleomycin delivery (for treatment model), groups of mice were sacrificed with a sodium pentobarbital injection (120 mg/kg) and the chest cavity was opened. The right mainstem bronchus was ligated and the right lung was removed. The trachea was cannulated and the left lung was perfused with 4% formaldehyde at 21 cm H2O pressure. The tissue blocks then were embedded in paraffin, and […] sections were prepared for staining. Sections from each animal were stained with hematoxylin and eosin (H&E) to visualize cells or with Masson's Trichrome staining to highlight collagen deposition. […] Stained sections were mounted onto a labeled glass slide with organic mounting medium.
Briefly, fibrotic loci in the lungs of the mice were induced by delivering intratracheally about 0.025 U of bleomycin (dissolved in PBS) to C57BL/6 mice. […] Briefly, mice were sacrificed with a sodium pentobarbital injection (120 mg/kg) and the chest cavity was opened. The right mainstem bronchus was ligated and the right lung was removed. The trachea was cannulated and the left lung was perfused with 4% formaldehyde at 21 cm H2O pressure. The tissue blocks then were embedded in paraffin, and […] sections were prepared, and stained with hematoxylin and eosin (H&E; for pathological examination) or Masson's Trichrome (for collagen staining)
Next, total collagen levels in the lungs of the bleomycin-injured mice (FIG. 12) were analyzed quantitatively by computing a constant conversion factor (7.5) for collagen from hydroxyproline concentrations (Neuman R. and Logan M, J Biol Chem., 186(2):549-56, 1950, incorporated by reference).
Next, the effect of increasing doses of MK2 peptide inhibitors on collagen deposition was examined in vivo using the bleomycin mouse model of idiopathic pulmonary fibrosis (prevention model). Briefly, C57-BL/6 mice were subjected to bleomycin injury at day 0.

Experiment [2] concerns human fetal lung fibroblasts (IMR-90), fibronectin. The experiment in a line: TGF-β-mediated fibronectin expression. Format: cell-based. Particulars: 1 h pre-treatment, then TGF-β1 (2 ng/ml) 72 h. As to the method: Fibronection was measured as secreted fragments in the conditioned media. Equal amounts (14 μg) of total proteins from the conditioned media were loaded in each lane.

Experiment [3] deals with human fetal lung fibroblasts (IMR-90), α-SMA. The experiment in a line: TGF-β-induced myofibroblast activation, α-SMA immunoblot. The class given is cell-based. Particulars: 1 h pre-treatment, then TGF-β1 (2 ng/ml) 48 h. An excerpt:
Cell lysates were immunoblotted against antibodies for α-SMA (a marker for myofibroblast activation) and GAPDH (loading control).

The target of the next experiment is Abl (M351T) (h) (Homo sapiens, UniProt P00519, M351T). As to the kind of experiment: Kinase Profiling Assay. The class given is biochemical. Particulars: 100 μM. The essentials:
as §1

The target of the next experiment is T5, EGFR(T790M) (h) (Homo sapiens, UniProt P00533, T790M).
T5 construct: purchased Millipore
As to the kind of experiment: Kinase Profiling Assay. Format: biochemical. Particulars: 100 μM. The essentials: as §1

T2 sequence (P16234 24-1089 D842V): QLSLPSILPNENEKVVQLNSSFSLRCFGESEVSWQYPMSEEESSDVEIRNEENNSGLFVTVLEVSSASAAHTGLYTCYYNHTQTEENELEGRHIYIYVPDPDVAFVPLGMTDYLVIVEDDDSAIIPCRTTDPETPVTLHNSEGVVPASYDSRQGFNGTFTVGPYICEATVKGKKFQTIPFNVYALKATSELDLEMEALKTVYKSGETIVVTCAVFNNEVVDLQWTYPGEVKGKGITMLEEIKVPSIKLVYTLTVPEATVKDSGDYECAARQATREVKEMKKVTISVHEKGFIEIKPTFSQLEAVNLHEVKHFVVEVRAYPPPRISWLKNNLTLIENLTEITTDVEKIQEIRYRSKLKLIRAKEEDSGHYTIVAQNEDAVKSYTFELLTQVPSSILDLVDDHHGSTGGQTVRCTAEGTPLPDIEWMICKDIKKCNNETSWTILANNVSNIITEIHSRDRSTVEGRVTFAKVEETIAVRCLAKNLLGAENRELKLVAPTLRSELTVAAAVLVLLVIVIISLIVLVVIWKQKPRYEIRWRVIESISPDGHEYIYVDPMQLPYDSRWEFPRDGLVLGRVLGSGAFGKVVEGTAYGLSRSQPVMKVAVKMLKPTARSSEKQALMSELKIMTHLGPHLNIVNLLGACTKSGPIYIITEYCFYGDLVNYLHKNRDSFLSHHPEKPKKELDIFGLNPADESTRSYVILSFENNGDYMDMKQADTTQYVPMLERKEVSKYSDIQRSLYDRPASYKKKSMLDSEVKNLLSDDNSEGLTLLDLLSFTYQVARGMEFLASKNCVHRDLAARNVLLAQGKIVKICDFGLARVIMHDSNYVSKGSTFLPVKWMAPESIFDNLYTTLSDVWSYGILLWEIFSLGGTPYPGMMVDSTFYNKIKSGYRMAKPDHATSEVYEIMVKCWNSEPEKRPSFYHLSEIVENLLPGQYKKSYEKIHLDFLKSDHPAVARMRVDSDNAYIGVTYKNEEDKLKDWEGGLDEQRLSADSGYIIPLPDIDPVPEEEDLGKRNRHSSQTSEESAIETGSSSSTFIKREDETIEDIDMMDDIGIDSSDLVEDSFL
Chain of MAPK1 (h) (P27361 whole entry): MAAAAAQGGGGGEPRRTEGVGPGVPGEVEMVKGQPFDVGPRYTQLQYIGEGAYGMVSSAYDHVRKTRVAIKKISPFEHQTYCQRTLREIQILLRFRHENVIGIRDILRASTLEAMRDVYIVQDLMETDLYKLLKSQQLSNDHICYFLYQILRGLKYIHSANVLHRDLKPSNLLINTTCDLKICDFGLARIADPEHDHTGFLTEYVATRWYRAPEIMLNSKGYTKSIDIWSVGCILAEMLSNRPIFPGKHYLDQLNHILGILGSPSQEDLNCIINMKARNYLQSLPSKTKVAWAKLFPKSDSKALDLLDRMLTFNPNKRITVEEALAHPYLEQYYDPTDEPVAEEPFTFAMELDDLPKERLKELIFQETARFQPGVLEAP
T3 sequence (Q5VT25 whole entry): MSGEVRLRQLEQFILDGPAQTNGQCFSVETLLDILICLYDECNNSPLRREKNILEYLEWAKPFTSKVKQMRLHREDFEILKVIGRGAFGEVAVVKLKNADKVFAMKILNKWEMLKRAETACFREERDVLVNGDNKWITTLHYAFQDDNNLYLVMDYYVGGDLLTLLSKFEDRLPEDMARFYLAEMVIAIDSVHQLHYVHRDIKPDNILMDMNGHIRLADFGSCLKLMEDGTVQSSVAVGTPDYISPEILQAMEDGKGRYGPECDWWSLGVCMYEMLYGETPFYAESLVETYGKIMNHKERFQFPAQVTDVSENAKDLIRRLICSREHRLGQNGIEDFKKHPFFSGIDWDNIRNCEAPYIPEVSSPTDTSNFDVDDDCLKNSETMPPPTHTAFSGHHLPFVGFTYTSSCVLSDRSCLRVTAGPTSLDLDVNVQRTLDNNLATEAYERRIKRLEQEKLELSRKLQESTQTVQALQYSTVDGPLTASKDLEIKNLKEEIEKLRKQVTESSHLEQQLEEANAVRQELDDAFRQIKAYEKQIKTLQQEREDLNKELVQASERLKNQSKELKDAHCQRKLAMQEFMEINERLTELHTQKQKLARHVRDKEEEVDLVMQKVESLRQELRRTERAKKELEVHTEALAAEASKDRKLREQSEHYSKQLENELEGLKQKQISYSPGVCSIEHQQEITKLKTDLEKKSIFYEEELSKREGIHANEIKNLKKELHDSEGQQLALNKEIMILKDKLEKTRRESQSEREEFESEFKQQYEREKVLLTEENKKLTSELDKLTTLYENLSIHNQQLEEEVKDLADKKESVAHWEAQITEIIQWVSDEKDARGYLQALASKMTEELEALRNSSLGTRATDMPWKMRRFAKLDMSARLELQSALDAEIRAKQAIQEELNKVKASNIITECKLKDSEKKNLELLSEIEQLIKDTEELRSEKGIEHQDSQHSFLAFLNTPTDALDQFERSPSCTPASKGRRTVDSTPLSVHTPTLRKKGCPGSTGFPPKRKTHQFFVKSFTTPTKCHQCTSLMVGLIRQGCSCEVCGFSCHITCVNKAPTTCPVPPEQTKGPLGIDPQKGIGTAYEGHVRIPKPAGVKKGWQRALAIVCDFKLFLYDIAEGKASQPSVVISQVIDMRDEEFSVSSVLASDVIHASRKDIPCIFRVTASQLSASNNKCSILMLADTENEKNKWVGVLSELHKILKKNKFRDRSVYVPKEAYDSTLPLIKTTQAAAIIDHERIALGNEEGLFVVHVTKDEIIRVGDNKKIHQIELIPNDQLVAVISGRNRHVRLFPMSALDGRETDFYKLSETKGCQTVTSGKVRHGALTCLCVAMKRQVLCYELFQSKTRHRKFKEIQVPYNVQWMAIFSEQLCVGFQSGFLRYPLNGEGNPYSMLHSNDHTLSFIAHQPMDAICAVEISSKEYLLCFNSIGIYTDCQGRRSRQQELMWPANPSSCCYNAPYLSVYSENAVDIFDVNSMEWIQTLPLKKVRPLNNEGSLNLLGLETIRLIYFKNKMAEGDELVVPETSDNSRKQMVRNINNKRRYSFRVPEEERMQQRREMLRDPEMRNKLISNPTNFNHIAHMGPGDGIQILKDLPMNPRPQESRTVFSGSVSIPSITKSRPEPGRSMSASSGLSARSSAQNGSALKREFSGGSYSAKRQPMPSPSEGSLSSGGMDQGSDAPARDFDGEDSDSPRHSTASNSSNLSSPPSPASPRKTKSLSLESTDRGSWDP

As for KAFAKLAARLYRKALARQLGVAA [MMI-0400], the “% activity” value amounted to 122% with JAK3 (h); 118% with PDGFRα (D842V) (h); 131% with Snk (h); 100% with MAPK1 (h); 97% with MRCKα (h).
As for “YARAAARQARAKALNRQLGVA (Mammalian) [MMI-0200]”, the “% activity” value was found to be 50% in the experiment with PAK3 (h), 128% with Plk1 (h) and 97% with MAPK1 (h). In addition, the “collagen levels in the lung (Masson's blue trichrome staining), dose response” value in experiment [1] is on record as “did not reduce, but rather increased the collagen deposition”. In addition, the “protein level of fibronectin (secreted fragments in conditioned media)” value in experiment [2] was “no changes in the protein level”. Besides, the “protein level of α-smooth muscle actin (α-SMA)” value in experiment [3] is “no changes in the protein level”.
For “HRRIKAWLKKIKALARQLGVAA (Mammalian) [MMI-0500]”, the “% activity” value is listed as 95% with JAK3 (h); 170% with PDGFRα (D842V) (h); 122% in the experiment with Snk (h); 61% with Abl (M351T) (h); 5% with MRCKα (h); 70% with EGFR(T790M) (h).
Regarding FAKLAARLYRKALARQLGVAA [MMI-0300], the “% activity” value in the experiment with PAK3 (h) stood at 140%; in the experiment with Abl (M351T) (h) it was 90%; with EGFR(T790M) (h), 100%.
